Results on 2 molecules are retold here after patent US20090305339A1, “Polypeptides With Laccase Activity” (VIALACTIA BIOSCIENCES (NZ) LIMITED, priority 2006, published 2009).

Data set [1] can be described thus: Laccase activity, veratryl alcohol as substrate. Type of data set: biochemical. The conditions noted are these: data not shown. The protocol: (§1) Laccase activity was determined spectrophotometrically in a thermostated spectrophotometer (Perkin-Elmer) at 40° C. in 100 mM sodium citrate buffer, pH 4.5 (1 ml). The standard assay was performed at 530 nm, using SGZ as the oxidation substrate (ε530=64,000 M^−1cm^−1). The reaction was started by adding SGZ, from a stock solution in methanol, to a final concentration of 20 μM. […] Oxidation of phenol red (75 μM) was determined by the decrease in absorbance at 432 nm. The activity:pH and activity:temperature relationships were determined by incubating the enzyme:substrate mixtures at different pH values and constant temperature (40° C.), and at different temperatures (15-80° C.) and constant pH (4.5), respectively. Catalytic constants were derived by fitting the experimental data onto the Michaelis-Menten model. Control measurements without enzyme were carried out to correct for possible chemical oxidation of the substrates.

Data set [2] can be described thus: Laccase activity, spectrophotometric, SGZ as substrate. In kind it is biochemical. The conditions noted are these: data not shown. The protocol:
as §1

Data set [3] can be described thus: Laccase activity, guaiacol as substrate. Type of data set: biochemical. Conditions: data not shown. The protocol:
as §1

Data set [4] can be described thus: Oxidative reactions of various compounds (substrate preference, overall kinetics, pH range). In kind it is biochemical. The conditions noted are these: order of oxidized substrates. The protocol: as §1
Data set [5] in a line: Laccase activity, spectrophotometric, DMP as substrate. In kind it is biochemical. Conditions: data not shown. The protocol: as §1
Data set [6] is described as follows: pH- and temperature-dependent activity and inactivation profiles. In kind it is biochemical. Conditions: sodium citrate pH 4.5, 1 mM SGZ or DMP. The protocol:
FIG. 2A represents the effect of various pH values on the activity of recombinant purified RL5 laccase. The activity was measured at 40° C. using 1 mM SGZ (syringaldazine) or DMP as substrate. The buffers (100 mM) used were: citrate (pH 3.0-5.5), MES (pH 5.5-7.0), HEPES (pH 7.0-8.0), Tris-HCl (pH 8.0-9.0) and glycine-NaOH (pH 9.0-12). The activity of RL5 for DMP reached an optimum at a broad pH ranging from 3.5-9.0, being optimal at 4.0-5.0; however, it maintained more than 70% activity at pH 3.5 and 9.0 (FIG. 2A).
FIG. 2B represents the pH inactivation of purified RL5 laccase in sodium citrate pH 4.5 (indicated with “∘”) or glycine-NaOH pH 9.0 (indicated with “[…]”) over a time period of 240 min. 100% activity in the purified protein sample equals 7.2 units/mg (measured at 40° C.).
FIG. 2C represents the effect of the temperature on the activity of recombinant purified RL5 laccase. The enzyme activity was assayed at each indicated temperature in sodium citrate pH 4.5 in the presence of 1 mM SGZ or DMP. Activity was monitored at 420 nm. Protein activity increased as the temperature was raised to a maximum at ˜60° C. Therefore, RL5 is stable at high temperatures.
FIG. 2D represents the thermal inactivation of purified RL5 laccase. Purified enzyme was incubated in vials at 60° C. ([…]) or 65° C. (∘). At the indicated times, samples were withdrawn and tested for laccase activity at 40° C. by using SGZ or DMP as a substrate. 100% activity in the purified protein sample equals 17.2 units/mg.
Corresponding experiments were performed with BT4389 and YfiH under conditions as described above for FIGS. 2A to 2D (data not shown). The activity of these enzymes reached an optimum at a temperature of 52° C. (for BT4389) and 44° C. (for YfiH) and the thermal activity maintained for more than 80% at 55° C. (for BT4389) and at 50° C. (for YfiH). The activity of both enzymes reached an optimum at a pH range from 4.5 to 6.0 (for BT4389) and from 5.5 to 8.4 (for YfiH), although 80% activity maintained at pH 4.0 to 7.5 (for BT4389) and 5.0 to 9.0 (for YfiH).
as §1

Substrate in data set [7]: CCn1c(=NN=c2sc3cc(S(=O)(=O)O)ccc3n2CC)sc2cc(S(=O)(=O)O)ccc21
In words: purified protein, by the assay type. The conditions noted are these: other: 40° C., pH 4.5, 14 nM protein, substrate 0 to 1 mM.

Substrate in data set [8]: COc1cccc(OC)c1O
In words: Steady-state kinetics of RL5 laccase, spectrophotometric oxidation of laccase substrates. Type of data set: biochemical, bovine rumen metagenome. Conditions: other: 40° C., pH 4.5, 14 nM protein, substrate 0 to 1 mM.

Substrate in data set [9]: COc1cc(/C=N/N=C/c2cc(OC)c(O)c(OC)c2)cc(OC)c1O
The description is as above. Conditions: other: 40° C., pH 4.5, 14 nM protein, substrate 0 to 1 mM. Type of data set: biochemical, bovine rumen metagenome.

B1: YfiH: DUF152 domain containing hypothetical protein from Escherichia coli, Gene Bank AAG57706, identified as laccase (FIG. 13) (protein, listed as Escherichia coli)
chain: MSKLIVPQWPLPKGVAACSSTRIGGVSLPPYDSLNLGAHCGDNPDHVEENRKRLFAAGNLPSKPVWLEQVHGKDVLNLTGEPYASKRADASYSNTPGRVCAVMTADCLPVLFCNRAGTEVAAAHAGWRGLCAGVLEETVSCFADNPENILAWLGPAIGPRAFEVGAEVREAFMAVDAEASTAFIQHGDKYLADIYQLARQRLANVGVEQIFGGDRCTYTENETFFSYRRDKTTGRMASFIWLI
modifications: Description of sequence amino acid sequence of protein YfiH with unknown function DUF152 from Escherichia coli (Gene Bank accession number AAG57706) (see Fig. 13)
As for B1, the oxidation activity in data set [1] was found to be 2.1 units/g protein; in data set [2], 5.6 units/g protein; in [3] it was 0.5 units/g protein; in [5] it was 4 units/g protein. Also, in data set [4], the substrate preference entry is “SGZ>DMP>>veratryl alcohol>>guaiacol”. For the same molecule, the “temperature optimum of activity” value in data set [6] was found to be 44 °C.

B2: RL5 laccase (bovine rumen metagenome), wild type, FIG. 11 (unidentified prokaryotic organism) (protein)
chain: MIELEKLDFAKSVEGVEAFSTTRGQVDGRNAYSGVNLCDYVGDDALRVLDARLTLAMQLGVDLDDLVMPRQTHSCRVAVIDERFRALDIDEQEAALEGVDALVTRLQGIVIGVNTADCVPIVLVDSQAGIVAVSHAGWRGTVGRIAKAVVEEMCRQGATVDRIQAAMGPSICQDCFEVGDEVVEAFKKAHFNLNDIVVRNPATGKAHIDLRAANRAVLVAAGVPAANIVESQHCSRCEHTSFFSARRLGINSGRTFTGIYRK
For the molecule B2, the Km (commonly the concentration of substrate that gives half-maximal velocity) came out at 26.2 µM in data set [7], 0.45 µM in [8] and 0.43 µM in [9]. Further, the kcat (as a rule, the maximal rate divided by the concentration of active sites) in [7] is 18.05 s⁻¹; in data set [8] it was 1174 s⁻¹; in [9], 663.45 s⁻¹.
